From the RNAGym collection of RNA variant scans (doi:10.1073/pnas.2313332121)
Variants at the floor of the assay were thinned out.

B1: TPR 5TU (parent)
chain: GGAUCUUCUCGAUCUAACAAAAAAGACAAAUCUGCCACAAAGCUUGAGAGCAUCUUCGGAUGCAGAGGCGGCAGCCUUCGGUGGCGCGAUAGCGCCAACGUUCUCAACUAUGACACGCAAAACGCGUGCUCCGUUGAAUGGAGUUUAUCAUG

Variants of: B1
Assay: polymerase ribozyme fitness, log enrichment relative to wild type (log ratio); higher = more active; in vitro selection for triplet polymerase activity
How it was run: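 Streptavidin-bead capture of gel-excised extended constructs, followed by RT-PCR, closed a single triplicate in vitro selection round. That round began by annealing PCR-built, transcribed mutant libraries of each subunit of a heterodimeric triplet polymerase ribozyme with a biotinylated primer, the partner subunit and triplets, then incubating them frozen at −7 °C. After Illumina sequencing of inputs and outputs, genotypes needed ≥10 input reads and ≥1 read per output. Fitness is the base-2 logarithm of genotype enrichment over wild-type enrichment, using inverse-variance-weighted replicate averages.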

| Variant | polymerase ribozyme fitness (log ratio) |
| --- | --- |
| A23G G84U | -3.88 |
| A24G A49G C105U G117U | ≤ -4.2 |
| A24C C118U C125U | ≤ -4.2 |
| A24G C35A G58A C93G C99A | ≤ -4.2 |
| A22U U134A | -2.01 |
| A24C U53C C118U A142C | ≤ -4.2 |
| A22U G88U C116A A119U | -4.1 |
| A22U G141A | 2.05 |
| A24C C27G U33G C38U A47U U82A G128U | ≤ -4.2 |
| A23U G58C G88U G136A | ≤ -4.2 |
| A23G C93U | -3.77 |
| A24C U53A U55A A98U G126A C149G | ≤ -4.2 |
| A23U U148C | -4.13 |
| A23G G81A A121U G141U | -2.76 |
| A24C U55A A73U G84U U102A A110U A119C | ≤ -4.2 |
| A23U U31C C87G U104G | ≤ -4.2 |
| A24C C32U A49C C85G G86A A91G C123G C132A | ≤ -4.2 |
| A23C C75G C103U | ≤ -4.2 |
| A23C C27G A60G A97C G124U | ≤ -4.2 |
| A23C C87U G112U | -3.99 |
| A23U C35A A41C U55G G86C C95G C105A | ≤ -4.2 |

| Variant | polymerase ribozyme fitness (log ratio) |
| --- | --- |
| A23U C51U C93U G100U C123G | ≤ -4.2 |
| A23U C114U | -3.88 |
| A23U C93A | ≤ -4.2 |
| A22U U55A C85G | -2.29 |
| A24G C54U G67A G141A A150C | ≤ -4.2 |
| A23U A24U | -4.12 |
| A23G G59A G68U A142U | ≤ -4.2 |
| A22U U56G | -0.902 |
| A23G A39U A47C U53G G86C A106G | ≤ -4.2 |
| A23U C43A C69G C99G U139A U144A | ≤ -4.2 |
| A23U A26C G50A | ≤ -4.2 |
| A23G C72U | -3.74 |
| A23G G124C A147G A150G | ≤ -4.2 |
| A23G A91U G140C | ≤ -4.2 |
| A23U C38A U45G G50C U56A C93G G117A | ≤ -4.2 |
| A23U G50C U139G | ≤ -4.2 |
| A23U G42C C54U C76A C93A U127C G133C | ≤ -4.2 |
| A24C G46C A73G C93A A110U A147U | ≤ -4.2 |
| A23C U33A A41G U45A C87G C103G | ≤ -4.2 |
| A23G G25C G50C C57A G58U C85U U144C | ≤ -4.2 |
| A24C G34C G50C U134A | ≤ -4.2 |

| Variant | polymerase ribozyme fitness (log ratio) |
| --- | --- |
| A23U A29C A119U | ≤ -4.2 |
| A23C U55A U82C G136U | ≤ -4.2 |
| A23U A40G C87A G141U | ≤ -4.2 |
| A23U G25U A29U C43U G58U G86A A107G | ≤ -4.2 |
| A23C A26U U33G C76A U101G U145G | ≤ -4.2 |
| A24G C35U G48U A52U C125A | ≤ -4.2 |
| A24G A26C A29C C79A C93U A115G G117A U144C A150C | ≤ -4.2 |
| A23G C85A A98C | -3.17 |
| A24C C85A G143C U146A | ≤ -4.2 |
| A23C C95U | -4.12 |
| A22U G86A C93G C99A A138C | ≤ -4.2 |
| A24C A37G G48C C63U U78G G88C U144G | ≤ -4.2 |
| A23U C96U | -4.1 |
| A23U C76G | ≤ -4.2 |
| A23G U33G G100C U148C | ≤ -4.2 |
| A23G U31A G58C G70C C93G A107G | ≤ -4.2 |
| A23C C43U U53G G81C C87A G143A | ≤ -4.2 |
| A23U C27G A40G A47U G67A G83U G84A | ≤ -4.2 |
| A24C U56A G68A G141A | ≤ -4.2 |
| A23U C54A G83U U102G | ≤ -4.2 |
| A23G C36A C105A A107G U145A | ≤ -4.2 |

| Variant | polymerase ribozyme fitness (log ratio) |
| --- | --- |
| A23U A29U C79G G81U C93G C149U | ≤ -4.2 |
| A24G A40C U55G A97U | ≤ -4.2 |
| A23C A24G A28C C63U G67A A121U U144A | ≤ -4.2 |
| A22U G83C | -1.73 |
| A23U C43U U61G G84U A89C C108G U145A | ≤ -4.2 |
| A23G G62A A73U C76G G88A C105U A106G | ≤ -4.2 |
| A23G G50C G86C A89G G92U A97U G141C | ≤ -4.2 |
| A23U G86U A89G C105G C129U | ≤ -4.2 |
| A23C A30C G50A A66G C96A A98U G128C | ≤ -4.2 |
| A22U U55A A66C U77A C87A | ≤ -4.2 |
| A23G C85U C95U G133U | -4 |
| A24C U55A C57U G58U A66G G68C C85A C149G | ≤ -4.2 |
| A23C C54U U55A G71A A122G | ≤ -4.2 |
| A23U C85U U102A A107U U130G U135G A138C | ≤ -4.2 |
| A23G C54U C93U G128C | ≤ -4.2 |
| A24G A37U A115G U130C U135A A150U | ≤ -4.2 |
| A24C A37C C38U G59A C95A A107C C116U | ≤ -4.2 |
| A23C A28C G46A U55A C96U | ≤ -4.2 |
| A23G C51U G65C G88C U111A C131G C149G | ≤ -4.2 |
| A23U U90C C93U U102G A119U G124A G133U U134C | ≤ -4.2 |
